Source: PMC9482650, “Quantitative fragmentomics allow affinity mapping of interactomes” (Nature Communications, 2022)

Tests used:
Assay in all cases: holdup assay
Parameters in all cases: key: below the threshold = too weak to quantify, mostly under pKd 3.1 to 4
[1] = target: T1, APBA1_1, Q02410
T1 sequence (Q02410 651-752, limits assumed, looked up): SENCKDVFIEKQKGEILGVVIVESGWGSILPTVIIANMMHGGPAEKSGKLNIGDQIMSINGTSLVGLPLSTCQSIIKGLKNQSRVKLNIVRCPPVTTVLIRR

[2] = target: SCRIB_1, Q14160
[3] = target: GORASP2, Q9H8Y8
[4] = target: MAGI2_4, Q86UL8
MAGI2_4, Q86UL8, sequence (Q86UL8 772-865): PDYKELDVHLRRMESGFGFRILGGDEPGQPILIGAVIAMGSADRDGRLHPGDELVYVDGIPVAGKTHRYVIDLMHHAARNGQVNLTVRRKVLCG

[5] = target: T2, APBA2_2, Q99767
T2 sequence (Q99767 654-744, limits assumed, looked up): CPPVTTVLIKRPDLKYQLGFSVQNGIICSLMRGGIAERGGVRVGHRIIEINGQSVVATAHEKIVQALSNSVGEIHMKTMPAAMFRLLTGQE

[6] = target: FRMPD4, Q14CM0
FRMPD4, Q14CM0, sequence (Q14CM0 67-160): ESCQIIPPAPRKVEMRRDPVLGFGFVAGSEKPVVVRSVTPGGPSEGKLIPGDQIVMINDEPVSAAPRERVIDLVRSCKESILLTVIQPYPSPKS

[7] = target: T3, GRIP1_2, Q9Y3R0
T3 sequence (Q9Y3R0 145-248, limits assumed, looked up): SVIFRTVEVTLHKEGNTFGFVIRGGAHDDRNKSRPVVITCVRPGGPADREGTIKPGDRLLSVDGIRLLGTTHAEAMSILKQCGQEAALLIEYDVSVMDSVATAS

[8] = target: T4, HTRA4, P83105
T4 sequence (P83105 378-476, limits assumed, looked up): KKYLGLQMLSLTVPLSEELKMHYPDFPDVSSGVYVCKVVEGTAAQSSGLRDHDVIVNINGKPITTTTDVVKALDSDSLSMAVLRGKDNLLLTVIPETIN

[9] = target: LNX1_2, Q8TBB1
LNX1_2, Q8TBB1, sequence (Q8TBB1 371-470): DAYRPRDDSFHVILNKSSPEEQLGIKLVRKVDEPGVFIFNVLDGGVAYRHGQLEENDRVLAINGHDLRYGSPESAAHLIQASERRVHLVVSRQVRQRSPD

[10] = target: T5, LIN7A, O14910
T5 sequence (O14910 103-200, limits assumed, looked up): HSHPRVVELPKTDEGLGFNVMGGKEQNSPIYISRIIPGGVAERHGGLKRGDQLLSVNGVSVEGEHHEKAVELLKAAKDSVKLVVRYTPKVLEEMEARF

[11] = target: T6, FRMPD1, Q5SYB0
T6 sequence (Q5SYB0 52-145, limits assumed, looked up): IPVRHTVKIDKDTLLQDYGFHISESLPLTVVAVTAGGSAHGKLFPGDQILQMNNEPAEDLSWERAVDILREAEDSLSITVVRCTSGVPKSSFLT

[12] = target: MAST2, Q6P0Q8
MAST2, Q6P0Q8, sequence (Q6P0Q8 1099-1202): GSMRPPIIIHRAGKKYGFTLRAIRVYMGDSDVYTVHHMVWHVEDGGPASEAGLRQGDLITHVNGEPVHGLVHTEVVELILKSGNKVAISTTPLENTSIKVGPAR

[13] = target: T7, PARD3B_1, Q8TEW8
T7 sequence (Q8TEW8 196-299, limits assumed, looked up): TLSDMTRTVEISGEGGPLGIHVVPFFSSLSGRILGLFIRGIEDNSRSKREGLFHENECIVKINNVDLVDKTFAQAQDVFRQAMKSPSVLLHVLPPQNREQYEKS

[14] = target: GRASP, Q7Z6J2
GRASP, Q7Z6J2, sequence (Q7Z6J2 96-193): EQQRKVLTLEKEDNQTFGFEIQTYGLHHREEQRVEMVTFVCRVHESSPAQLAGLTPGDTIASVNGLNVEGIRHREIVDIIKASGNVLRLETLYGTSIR

[15] = target: T8, MPP2, Q14168
T8 sequence (Q14168 180-250, limits assumed, looked up): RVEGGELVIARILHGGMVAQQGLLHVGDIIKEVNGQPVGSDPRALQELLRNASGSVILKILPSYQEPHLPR

[16] = target: HTRA1, Q92743
HTRA1, Q92743, sequence (Q92743 360-477): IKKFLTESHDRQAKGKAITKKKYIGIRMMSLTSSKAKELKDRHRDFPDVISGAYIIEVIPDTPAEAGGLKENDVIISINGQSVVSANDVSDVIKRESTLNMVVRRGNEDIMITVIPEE

[17] = target: DLG2_2, Q15700
DLG2_2, Q15700, sequence (Q15700 189-283): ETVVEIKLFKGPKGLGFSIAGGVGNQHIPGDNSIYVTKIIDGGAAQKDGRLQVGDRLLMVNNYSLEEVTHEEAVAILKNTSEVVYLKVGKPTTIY

[18] = target: GRIP2_7, Q9C0E4
GRIP2_7, Q9C0E4, sequence (Q9C0E4 934-1023): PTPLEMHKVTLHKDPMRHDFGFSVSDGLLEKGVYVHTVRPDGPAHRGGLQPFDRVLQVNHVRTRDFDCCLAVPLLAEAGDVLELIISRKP

[19] = target: T9, SNTA1, Q13424
T9 sequence (Q13424 82-180, limits assumed, looked up): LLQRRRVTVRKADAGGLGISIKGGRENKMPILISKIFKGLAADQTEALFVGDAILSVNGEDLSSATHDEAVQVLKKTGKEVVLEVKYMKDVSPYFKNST

[20] = target: T10, DFNB31_3, Q9P202
T10 sequence (Q9P202 811-907, limits assumed, looked up): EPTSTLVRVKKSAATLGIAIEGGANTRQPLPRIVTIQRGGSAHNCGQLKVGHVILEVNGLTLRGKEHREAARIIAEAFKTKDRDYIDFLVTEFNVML

[21] = target: T11, DLG3_1, Q92796
T11 sequence (Q92796 125-227, limits assumed, looked up): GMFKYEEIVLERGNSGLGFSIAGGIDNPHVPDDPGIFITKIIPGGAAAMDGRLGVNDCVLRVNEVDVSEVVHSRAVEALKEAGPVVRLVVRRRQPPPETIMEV

[22] = target: MAGI2_6, Q86UL8
MAGI2_6, Q86UL8, sequence (Q86UL8 1141-1229): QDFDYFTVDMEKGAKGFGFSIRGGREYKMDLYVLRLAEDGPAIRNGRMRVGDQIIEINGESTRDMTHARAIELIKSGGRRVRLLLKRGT

[23] = target: T12, DFNB31_2, Q9P202
T12 sequence (Q9P202 274-371, limits assumed, looked up): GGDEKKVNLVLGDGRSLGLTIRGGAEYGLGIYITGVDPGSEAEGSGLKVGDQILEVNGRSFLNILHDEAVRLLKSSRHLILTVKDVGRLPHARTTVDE

[24] = target: MAGI1_1, Q96QZ7
MAGI1_1, Q96QZ7, sequence (Q96QZ7 1-106): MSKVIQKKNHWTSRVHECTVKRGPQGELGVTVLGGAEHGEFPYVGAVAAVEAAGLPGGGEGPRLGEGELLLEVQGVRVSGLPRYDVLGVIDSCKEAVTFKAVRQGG

[25] = target: IL16_3, Q14005
IL16_3, Q14005, sequence (Q14005 1107-1207): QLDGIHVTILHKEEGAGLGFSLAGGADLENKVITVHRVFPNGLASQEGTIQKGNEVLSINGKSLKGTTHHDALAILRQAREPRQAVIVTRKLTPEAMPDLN

[26] = plain residues with an end cap or a label only (N-terminal biotin on a linker: ttds)
[27] = plain residues with an end cap or a label only (N-terminal biotin on a linker: none)
[28] = plain residues with an end cap or a label only (N-terminal biotin on a linker: ahx)

SCRIB_1, Q14160, sequence (Q14160 718-814): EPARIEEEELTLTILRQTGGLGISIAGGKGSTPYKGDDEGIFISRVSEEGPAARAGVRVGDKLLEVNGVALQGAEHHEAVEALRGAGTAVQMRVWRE

SGSRPSATVV [HPV73-E6, Q82005]
pKd [1, 26]: below the threshold | pKd [2, 26]: below the threshold | pKd [3, 26]: 4.13 | pKd [4, 26]: 4.49 | pKd [5, 26]: below the threshold | pKd [6, 26]: below the threshold | pKd [7, 26]: below the threshold | pKd [8, 26]: 3.86 | pKd [9, 26]: 4.06 | pKd [10, 26]: below the threshold | pKd [11, 26]: below the threshold | pKd [12, 26]: 3.88 | pKd [13, 26]: below the threshold | pKd [14, 26]: 3.8 | pKd [15, 26]: below the threshold | pKd [16, 26]: 3.9 | pKd [17, 26]: 4.03 | pKd [18, 26]: 3.56 | pKd [19, 26]: 3.54 | pKd [20, 26]: below the threshold | pKd [21, 26]: below the threshold | pKd [22, 26]: below the threshold | pKd [23, 26]: below the threshold | pKd [24, 26]: below the threshold | pKd [25, 26]: below the threshold

NLNSSRVPDLLV [SARS-CoV2-E, P0DTC4]
pKd [1, 27]: below the threshold | pKd [2, 27]: below the threshold | pKd [3, 27]: below the threshold | pKd [4, 27]: 3.65 | pKd [5, 27]: below the threshold | pKd [6, 27]: 3.48 | pKd [7, 27]: below the threshold | pKd [8, 27]: below the threshold | pKd [9, 27]: 3.81 | pKd [10, 27]: below the threshold | pKd [11, 27]: below the threshold | pKd [12, 27]: below the threshold | pKd [13, 27]: below the threshold | pKd [14, 27]: below the threshold | pKd [15, 27]: below the threshold | pKd [16, 27]: 4.32 | pKd [17, 27]: below the threshold | pKd [18, 27]: below the threshold | pKd [19, 27]: below the threshold | pKd [20, 27]: below the threshold | pKd [21, 27]: below the threshold | pKd [22, 27]: below the threshold | pKd [23, 27]: below the threshold | pKd [24, 27]: below the threshold | pKd [25, 27]: below the threshold

PVRVCEETSL [OTULIN, Q96BN8]
pKd [1, 26]: below the threshold | pKd [2, 26]: 5.44 | pKd [3, 26]: below the threshold | pKd [4, 26]: below the threshold | pKd [5, 26]: 3.51 | pKd [6, 26]: 4.59 | pKd [7, 26]: 3.69 | pKd [8, 26]: below the threshold | pKd [9, 26]: below the threshold | pKd [10, 26]: 3.47 | pKd [11, 26]: below the threshold | pKd [12, 26]: 5.28 | pKd [13, 26]: 4.09 | pKd [14, 26]: 4.71 | pKd [15, 26]: below the threshold | pKd [16, 26]: 4.04 | pKd [17, 26]: 3.87 | pKd [18, 26]: 3.66 | pKd [19, 26]: 4.53 | pKd [20, 26]: 3.49 | pKd [21, 26]: 3.75 | pKd [22, 26]: 4.06 | pKd [23, 26]: 3.58 | pKd [24, 26]: below the threshold | pKd [25, 26]: below the threshold

VDFPPKESSL [ACVR2A, P27037]
pKd [1, 26]: below the threshold | pKd [2, 26]: 3.83 | pKd [3, 26]: 3.87 | pKd [4, 26]: below the threshold | pKd [5, 26]: below the threshold | pKd [6, 26]: below the threshold | pKd [7, 26]: below the threshold | pKd [8, 26]: below the threshold | pKd [9, 26]: below the threshold | pKd [10, 26]: 3.24 | pKd [11, 26]: below the threshold | pKd [12, 26]: 5.05 | pKd [13, 26]: below the threshold | pKd [14, 26]: 3.47 | pKd [15, 26]: below the threshold | pKd [16, 26]: below the threshold | pKd [17, 26]: 3.84 | pKd [18, 26]: below the threshold | pKd [19, 26]: 4.28 | pKd [20, 26]: below the threshold | pKd [21, 26]: below the threshold | pKd [22, 26]: 3.69 | pKd [23, 26]: 3.46 | pKd [24, 26]: below the threshold | pKd [25, 26]: below the threshold

TVICWPGSLV [LNX2, Q8N448]
pKd [1, 28]: below the threshold | pKd [2, 28]: below the threshold | pKd [3, 28]: 4.55 | pKd [4, 28]: 5.22 | pKd [5, 28]: below the threshold | pKd [6, 28]: below the threshold | pKd [7, 28]: below the threshold | pKd [8, 28]: 4.45 | pKd [9, 28]: 3.99 | pKd [10, 28]: 4.35 | pKd [11, 28]: below the threshold | pKd [12, 28]: 4.1 | pKd [13, 28]: 3.99 | pKd [14, 28]: 4.59 | pKd [15, 28]: 3.62 | pKd [16, 28]: 4.94 | pKd [17, 28]: 3.9 | pKd [18, 28]: below the threshold | pKd [19, 28]: 3.96 | pKd [20, 28]: below the threshold | pKd [21, 28]: 4.01 | pKd [22, 28]: 3.56 | pKd [23, 28]: below the threshold | pKd [24, 28]: below the threshold | pKd [25, 28]: below the threshold

FHPLGADSQV [SLC2A1, P11166]
pKd [1, 26]: below the threshold | pKd [2, 26]: 4.02 | pKd [3, 26]: below the threshold | pKd [4, 26]: below the threshold | pKd [5, 26]: below the threshold | pKd [6, 26]: below the threshold | pKd [7, 26]: below the threshold | pKd [8, 26]: below the threshold | pKd [9, 26]: below the threshold | pKd [10, 26]: below the threshold | pKd [11, 26]: below the threshold | pKd [12, 26]: 4.25 | pKd [13, 26]: below the threshold | pKd [14, 26]: below the threshold | pKd [15, 26]: below the threshold | pKd [16, 26]: below the threshold | pKd [17, 26]: 3.65 | pKd [18, 26]: below the threshold | pKd [19, 26]: below the threshold | pKd [20, 26]: below the threshold | pKd [21, 26]: below the threshold | pKd [22, 26]: 3.99 | pKd [23, 26]: below the threshold | pKd [24, 26]: below the threshold | pKd [25, 26]: below the threshold
